# Measured values published in publication PMC3387196.
# Biological target: Nedd4 (UniProt P46935)
# Experiment: anti-FLAG co-IP, Ala mutants
# Conditions: reference: wild type; sites T1859,S1962
substance,measurement,value
Kif26b (from UniProt Q7TNC6) T1859A/S1962A,binding against the reference,weaker
